Among the targets are JAK3 (UniProt P52333 781-1124, limits assumed); PAK3 (UniProt O75914 1-559, limits assumed); AKT2 (PKB beta) (UniProt P31751 1-481, limits assumed); TrkB (UniProt Q16620 455-822, limits assumed); AKT1 (PKB alpha), active (UniProt P31749 1-480, limits assumed); RPS6KB1 (p70S6K) (UniProt P23443 1-421, limits assumed); Abl (UniProt P00519 27-1130, limits assumed).
Holding throughout (test): cell-based or functional assay
In the next assay the target is T1, SGK (SGK1) (UniProt O00141 60-431, limits assumed).
T1 sequence (looked up): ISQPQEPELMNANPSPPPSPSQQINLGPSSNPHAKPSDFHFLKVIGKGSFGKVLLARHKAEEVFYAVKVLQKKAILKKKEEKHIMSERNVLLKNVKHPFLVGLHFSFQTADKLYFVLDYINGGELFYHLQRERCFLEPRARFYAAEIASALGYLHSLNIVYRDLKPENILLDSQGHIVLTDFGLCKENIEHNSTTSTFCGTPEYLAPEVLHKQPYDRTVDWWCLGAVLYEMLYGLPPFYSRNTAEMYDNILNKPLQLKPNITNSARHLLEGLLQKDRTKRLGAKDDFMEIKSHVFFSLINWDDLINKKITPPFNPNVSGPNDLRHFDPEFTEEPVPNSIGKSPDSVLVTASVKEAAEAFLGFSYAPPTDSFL

A further assay deals with T2, PI3Kδ (UniProt O00329 1-1044, limits assumed).
T2 sequence (looked up): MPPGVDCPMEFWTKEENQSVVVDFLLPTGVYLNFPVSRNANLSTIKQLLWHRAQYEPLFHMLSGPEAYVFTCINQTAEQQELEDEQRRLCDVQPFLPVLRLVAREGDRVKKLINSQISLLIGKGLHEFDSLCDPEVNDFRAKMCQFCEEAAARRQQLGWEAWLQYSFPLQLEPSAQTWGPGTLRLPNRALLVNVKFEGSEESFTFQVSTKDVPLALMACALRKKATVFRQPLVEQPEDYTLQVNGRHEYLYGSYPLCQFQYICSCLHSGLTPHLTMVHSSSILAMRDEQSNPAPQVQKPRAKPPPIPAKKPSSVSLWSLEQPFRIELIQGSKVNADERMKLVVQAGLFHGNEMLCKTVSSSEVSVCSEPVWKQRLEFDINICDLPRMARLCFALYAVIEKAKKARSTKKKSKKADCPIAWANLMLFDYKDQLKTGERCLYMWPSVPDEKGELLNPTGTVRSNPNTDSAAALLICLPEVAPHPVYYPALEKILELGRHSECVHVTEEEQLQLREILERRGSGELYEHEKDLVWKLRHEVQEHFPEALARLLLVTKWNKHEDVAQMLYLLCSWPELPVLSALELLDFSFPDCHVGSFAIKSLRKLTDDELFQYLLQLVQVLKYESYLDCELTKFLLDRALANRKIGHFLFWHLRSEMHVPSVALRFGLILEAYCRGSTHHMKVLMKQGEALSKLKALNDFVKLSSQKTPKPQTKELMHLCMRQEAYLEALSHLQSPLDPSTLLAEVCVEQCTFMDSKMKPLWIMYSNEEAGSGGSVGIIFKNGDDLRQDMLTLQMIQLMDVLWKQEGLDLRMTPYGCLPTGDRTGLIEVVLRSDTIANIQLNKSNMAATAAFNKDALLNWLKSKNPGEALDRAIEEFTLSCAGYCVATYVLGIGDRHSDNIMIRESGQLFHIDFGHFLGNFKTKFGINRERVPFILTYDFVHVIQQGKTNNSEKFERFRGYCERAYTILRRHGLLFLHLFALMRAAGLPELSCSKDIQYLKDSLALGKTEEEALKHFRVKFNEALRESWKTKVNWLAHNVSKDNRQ

Sequence of JAK3 (P52333 781-1124 limits assumed): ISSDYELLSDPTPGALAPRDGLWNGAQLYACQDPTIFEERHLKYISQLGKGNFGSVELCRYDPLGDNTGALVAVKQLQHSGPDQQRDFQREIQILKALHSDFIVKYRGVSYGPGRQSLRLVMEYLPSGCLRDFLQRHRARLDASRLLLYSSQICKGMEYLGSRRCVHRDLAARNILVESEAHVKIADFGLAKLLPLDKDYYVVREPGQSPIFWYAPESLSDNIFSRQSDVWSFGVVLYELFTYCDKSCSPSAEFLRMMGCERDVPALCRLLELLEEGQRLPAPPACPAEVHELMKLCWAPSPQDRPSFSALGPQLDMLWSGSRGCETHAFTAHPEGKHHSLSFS
Sequence of TrkB (Q16620 455-822 limits assumed): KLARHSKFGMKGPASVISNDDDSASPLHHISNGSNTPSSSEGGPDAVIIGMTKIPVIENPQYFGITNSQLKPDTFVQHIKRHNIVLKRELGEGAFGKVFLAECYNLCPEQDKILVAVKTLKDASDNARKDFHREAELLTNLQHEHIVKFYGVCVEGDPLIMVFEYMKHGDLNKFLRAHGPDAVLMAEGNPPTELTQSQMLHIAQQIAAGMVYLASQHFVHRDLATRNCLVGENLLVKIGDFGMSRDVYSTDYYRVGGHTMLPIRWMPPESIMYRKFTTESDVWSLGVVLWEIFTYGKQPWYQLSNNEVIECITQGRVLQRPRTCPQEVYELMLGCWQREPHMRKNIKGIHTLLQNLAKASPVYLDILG
Sequence of Abl (P00519 27-1130 limits assumed): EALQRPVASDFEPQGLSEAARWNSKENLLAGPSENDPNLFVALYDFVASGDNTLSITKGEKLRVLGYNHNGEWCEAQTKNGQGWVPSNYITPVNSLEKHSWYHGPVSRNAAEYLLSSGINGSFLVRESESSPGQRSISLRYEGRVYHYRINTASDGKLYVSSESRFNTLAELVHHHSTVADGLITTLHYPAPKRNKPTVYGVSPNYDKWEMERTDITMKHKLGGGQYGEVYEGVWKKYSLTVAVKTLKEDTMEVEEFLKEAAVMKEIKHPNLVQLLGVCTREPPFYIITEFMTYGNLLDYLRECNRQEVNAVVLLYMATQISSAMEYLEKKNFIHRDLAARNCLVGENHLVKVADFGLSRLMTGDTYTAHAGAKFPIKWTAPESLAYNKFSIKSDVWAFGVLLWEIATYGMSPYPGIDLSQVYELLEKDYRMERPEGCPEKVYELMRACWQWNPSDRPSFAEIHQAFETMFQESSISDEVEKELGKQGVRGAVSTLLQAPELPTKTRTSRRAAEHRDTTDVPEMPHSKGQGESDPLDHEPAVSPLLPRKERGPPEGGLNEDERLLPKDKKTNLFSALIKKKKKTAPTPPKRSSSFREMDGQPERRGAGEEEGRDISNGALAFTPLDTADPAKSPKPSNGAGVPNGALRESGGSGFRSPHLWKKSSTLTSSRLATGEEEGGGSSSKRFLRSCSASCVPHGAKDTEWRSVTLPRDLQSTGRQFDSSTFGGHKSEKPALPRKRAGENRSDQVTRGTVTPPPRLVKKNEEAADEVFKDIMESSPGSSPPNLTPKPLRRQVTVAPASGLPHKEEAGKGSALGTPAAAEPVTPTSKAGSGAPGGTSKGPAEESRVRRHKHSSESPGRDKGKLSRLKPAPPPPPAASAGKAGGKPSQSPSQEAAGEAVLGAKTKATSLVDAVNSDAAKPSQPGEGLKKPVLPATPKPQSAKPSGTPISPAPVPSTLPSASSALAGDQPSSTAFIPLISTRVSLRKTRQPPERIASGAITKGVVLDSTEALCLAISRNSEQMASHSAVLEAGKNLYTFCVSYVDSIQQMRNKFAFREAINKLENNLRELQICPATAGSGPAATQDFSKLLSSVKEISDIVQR
Sequence of RPS6KB1 (p70S6K) (P23443 1-421 limits assumed): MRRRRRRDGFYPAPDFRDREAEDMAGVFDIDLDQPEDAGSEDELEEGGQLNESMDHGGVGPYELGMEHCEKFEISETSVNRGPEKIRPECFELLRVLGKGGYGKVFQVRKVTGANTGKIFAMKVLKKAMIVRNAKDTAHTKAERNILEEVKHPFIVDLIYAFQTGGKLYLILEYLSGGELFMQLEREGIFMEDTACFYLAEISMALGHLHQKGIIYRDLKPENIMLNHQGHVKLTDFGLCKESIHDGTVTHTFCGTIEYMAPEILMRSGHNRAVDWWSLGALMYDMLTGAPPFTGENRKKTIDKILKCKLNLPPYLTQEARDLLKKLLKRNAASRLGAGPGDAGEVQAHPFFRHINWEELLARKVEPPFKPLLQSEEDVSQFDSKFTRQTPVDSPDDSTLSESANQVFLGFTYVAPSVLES
Sequence of AKT1 (PKB alpha), active (P31749 whole entry): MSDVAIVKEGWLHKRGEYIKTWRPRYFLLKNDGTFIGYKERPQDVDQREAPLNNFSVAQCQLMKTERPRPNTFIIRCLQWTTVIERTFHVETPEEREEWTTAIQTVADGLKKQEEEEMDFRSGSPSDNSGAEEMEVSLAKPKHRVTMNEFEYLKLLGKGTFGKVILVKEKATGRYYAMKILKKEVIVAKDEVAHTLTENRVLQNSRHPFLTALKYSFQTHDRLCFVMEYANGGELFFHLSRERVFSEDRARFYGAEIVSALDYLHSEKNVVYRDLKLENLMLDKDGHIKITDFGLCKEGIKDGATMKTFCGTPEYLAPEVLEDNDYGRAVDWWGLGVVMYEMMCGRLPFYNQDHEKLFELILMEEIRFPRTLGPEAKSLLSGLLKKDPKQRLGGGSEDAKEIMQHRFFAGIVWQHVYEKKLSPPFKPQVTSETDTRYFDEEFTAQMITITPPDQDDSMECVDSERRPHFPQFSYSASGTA
Sequence of AKT2 (PKB beta) (P31751 whole entry): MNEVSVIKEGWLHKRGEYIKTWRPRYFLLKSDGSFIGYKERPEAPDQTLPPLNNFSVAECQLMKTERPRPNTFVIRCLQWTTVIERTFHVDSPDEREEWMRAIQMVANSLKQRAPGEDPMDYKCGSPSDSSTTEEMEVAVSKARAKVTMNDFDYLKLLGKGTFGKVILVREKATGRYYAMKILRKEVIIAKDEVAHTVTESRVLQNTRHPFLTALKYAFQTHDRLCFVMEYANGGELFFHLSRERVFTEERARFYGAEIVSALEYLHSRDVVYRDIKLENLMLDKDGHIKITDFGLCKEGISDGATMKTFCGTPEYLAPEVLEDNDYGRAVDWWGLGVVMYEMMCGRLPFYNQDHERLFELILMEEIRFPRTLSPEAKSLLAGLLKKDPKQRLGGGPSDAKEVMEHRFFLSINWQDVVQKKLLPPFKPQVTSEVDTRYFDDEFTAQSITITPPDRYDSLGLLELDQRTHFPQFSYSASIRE
Sequence of PAK3 (O75914 whole entry): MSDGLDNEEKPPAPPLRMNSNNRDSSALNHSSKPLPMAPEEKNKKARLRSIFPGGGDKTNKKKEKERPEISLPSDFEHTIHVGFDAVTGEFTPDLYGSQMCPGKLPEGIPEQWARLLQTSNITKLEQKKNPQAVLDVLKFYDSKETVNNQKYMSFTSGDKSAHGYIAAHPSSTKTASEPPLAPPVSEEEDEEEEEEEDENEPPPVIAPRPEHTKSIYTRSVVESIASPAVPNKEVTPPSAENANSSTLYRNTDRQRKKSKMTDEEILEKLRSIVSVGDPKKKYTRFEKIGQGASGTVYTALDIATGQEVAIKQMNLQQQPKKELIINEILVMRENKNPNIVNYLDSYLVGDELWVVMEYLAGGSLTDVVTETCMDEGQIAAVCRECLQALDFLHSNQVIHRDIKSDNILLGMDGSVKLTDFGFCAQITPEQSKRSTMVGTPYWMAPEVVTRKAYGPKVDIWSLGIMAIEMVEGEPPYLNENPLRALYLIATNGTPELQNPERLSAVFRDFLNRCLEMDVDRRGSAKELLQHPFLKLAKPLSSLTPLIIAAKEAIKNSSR

Regarding AKRVKGRTWTLCGTPEY [ZaTa peptide (Ala-Lys-Arg-Val-Lys-Gly-Arg-Thr-Trp-Thr-Leu-Cys-Gly-Thr-Pro-Glu-Tyr)], the “in vitro kinase assay at ten times the IC50 for AKT1, percent inhibited” value with JAK3 came to 79%; with PAK3, 83%; with AKT2 (PKB beta), 63%; with TrkB, 84%; with SGK (SGK1) it was 73%; with RPS6KB1 (p70S6K), 64%. Moreover, the “in vitro kinase assay at ten times the IC50 for AKT1, percent inhibited” value amounted to 72% in the assay with PI3Kδ and 42% with Abl. In the assay with AKT1 (PKB alpha), active, the “IC50, AKT1 in vitro catalytic activity (incorporation of γ-32P into Ser-21 GSK-3β substrate peptide)” value is around 100 nM.

(Values after US20240083948A1 (ADVANCED TECHNOLOGIES FOR NOVEL THERAPEUTICS, published 2024).)
